Data taken from patent US11306156.
Values belong to the substance of their own block, whether it stands above or below them.

Assays:
[1] = biological target: D3H44 light chain Q124E_T180E with N-terminal HA or FLAG tag; experiment: LCCA (SPR tag readout), L1:L2 DNA 1:3, normalized to 1:1; competing light chain m12
[2] = biological target: D3H44 light chain Q124R_T178K with N-terminal HA or FLAG tag; experiment: LCCA (SPR tag readout), L1:L2 DNA 1:9, normalized to 1:1; competing light chain m18
[3] = biological target: D3H44 light chain Q124R_T178R with N-terminal HA or FLAG tag; experiment: as above
[4] = biological target: D3H44 light chain Q124E_Q160E_T180E with N-terminal HA or FLAG tag; experiment: LCCA (SPR tag readout), L1:L2 DNA 1:3, normalized to 1:1; competing light chain m9
[5] = biological target: D3H44 light chain Q124E_T180E with N-terminal HA or FLAG tag; experiment: as above
[6] = biological target: D3H44 light chain Q124E_Q160E_T180E with N-terminal HA or FLAG tag; experiment: LCCA (SPR tag readout), L1:L2 DNA 1:9, normalized to 1:1; competing light chain m9
[7] = biological target: D3H44 light chain Q124E_T180E with N-terminal HA or FLAG tag; experiment: LCCA (SPR tag readout), L1:L2 DNA 1:3, normalized to 1:1; competing light chain m14
[8] = biological target: D3H44 light chain Q124K_T178R with N-terminal HA or FLAG tag; experiment: LCCA (SPR tag readout), L1:L2 DNA 1:9, normalized to 1:1; competing light chain m13
[9] = biological target: D3H44 light chain Q124E_Q160E_T180E with N-terminal HA or FLAG tag; experiment: LCCA (SPR tag readout), L1:L2 DNA 1:9, normalized to 1:1; competing light chain m15
[10] = biological target: D3H44 light chain Q124E_T180E with N-terminal HA or FLAG tag; experiment: LCCA (SPR tag readout), L1:L2 DNA 1:9, normalized to 1:1; competing light chain m12
[11] = biological target: D3H44 light chain Q124K_T178R with N-terminal HA or FLAG tag; experiment: LCCA (SPR tag readout), L1:L2 DNA 1:3, normalized to 1:1; competing light chain m13
[12] = biological target: D3H44 light chain Q124R_T178K with N-terminal HA or FLAG tag; experiment: as above
[13] = biological target: D3H44 light chain Q124R_T178R with N-terminal HA or FLAG tag; experiment: as above
[14] = biological target: D3H44 light chain Q124R_Q160K_T178R with N-terminal HA or FLAG tag; experiment: as above
[15] = biological target: D3H44 light chain Q124R_T178K with N-terminal HA or FLAG tag; experiment: LCCA (SPR tag readout), L1:L2 DNA 1:3, normalized to 1:1; competing light chain m18
[16] = biological target: D3H44 light chain Q124R_T178R with N-terminal HA or FLAG tag; experiment: as above
[17] = biological target: D3H44 light chain Q124E_Q160E_T180E with N-terminal HA or FLAG tag; experiment: LCCA (SPR tag readout), L1:L2 DNA 1:3, normalized to 1:1; competing light chain m15
[18] = biological target: D3H44 light chain Q124E_T180E with N-terminal HA or FLAG tag; experiment: as above
[19] = biological target: D3H44 light chain Q124E_Q160E_T180E with N-terminal HA or FLAG tag; experiment: LCCA (SPR tag readout), L1:L2 DNA 1:3, normalized to 1:1; competing light chain m12
[20] = biological target: D3H44 light chain Q124R_T178R with N-terminal HA or FLAG tag; experiment: LCCA (SPR tag readout), L1:L2 DNA 1:9, normalized to 1:1; competing light chain m16
[21] = biological target: D3H44 light chain Q124K_T178R with N-terminal HA or FLAG tag; experiment: LCCA (SPR tag readout), L1:L2 DNA 1:9, normalized to 1:1; competing light chain m18
[22] = biological target: D3H44 light chain T178R with N-terminal HA or FLAG tag; experiment: as above
[23] = biological target: D3H44 light chain Q124E_Q160E_T180E with N-terminal HA or FLAG tag; experiment: LCCA (SPR tag readout), L1:L2 DNA 1:3, normalized to 1:1; competing light chain m19
[24] = biological target: D3H44 light chain Q124E_Q160E_T180E with N-terminal HA or FLAG tag; experiment: LCCA (SPR tag readout), L1:L2 DNA 1:9, normalized to 1:1; competing light chain m19
[25] = biological target: D3H44 light chain Q124E_T178E with N-terminal HA or FLAG tag; experiment: LCCA (SPR tag readout), L1:L2 DNA 1:3, normalized to 1:1; competing light chain m9
[26] = biological target: D3H44 light chain Q124E_T178E_T180E with N-terminal HA or FLAG tag; experiment: as above
[27] = biological target: D3H44 light chain Q124E_V133D with N-terminal HA or FLAG tag; experiment: as above
[28] = biological target: D3H44 light chain Q124E_T178E with N-terminal HA or FLAG tag; experiment: LCCA (SPR tag readout), L1:L2 DNA 1:9, normalized to 1:1; competing light chain m9
[29] = biological target: D3H44 light chain Q124E_T178E_T180E with N-terminal HA or FLAG tag; experiment: as above
[30] = biological target: D3H44 light chain Q124E_T180E with N-terminal HA or FLAG tag; experiment: as above
[31] = biological target: D3H44 light chain Q124E_V133D with N-terminal HA or FLAG tag; experiment: as above
[32] = biological target: D3H44 light chain Q124R_T178R with N-terminal HA or FLAG tag; experiment: LCCA (SPR tag readout), L1:L2 DNA 1:9, normalized to 1:1; competing light chain m13
[33] = biological target: D3H44 light chain Q124E_Q160E_T180E with N-terminal HA or FLAG tag; experiment: LCCA (SPR tag readout), L1:L2 DNA 1:9, normalized to 1:1; competing light chain m12
[34] = biological target: D3H44 light chain Q124R_T178R with N-terminal HA or FLAG tag; experiment: LCCA (SPR tag readout), L1:L2 DNA 1:3, normalized to 1:1; competing light chain m11
[35] = biological target: D3H44 light chain Q124R_T178R with N-terminal HA or FLAG tag; experiment: LCCA (SPR tag readout), L1:L2 DNA 1:9, normalized to 1:1; competing light chain m10
[36] = biological target: D3H44 light chain Q124K_T178R with N-terminal HA or FLAG tag; experiment: LCCA (SPR tag readout), L1:L2 DNA 1:3, normalized to 1:1; competing light chain m18
[37] = biological target: D3H44 light chain T178R with N-terminal HA or FLAG tag; experiment: as above
[38] = biological target: D3H44 light chain Q124R_T178R with N-terminal HA or FLAG tag; experiment: LCCA (SPR tag readout), L1:L2 DNA 1:3, normalized to 1:1; competing light chain m10
[39] = biological target: D3H44 light chain Q124R_T178R with N-terminal HA or FLAG tag; experiment: LCCA (SPR tag readout), L1:L2 DNA 1:9, normalized to 1:1; competing light chain m11
[40] = biological target: D3H44 light chain Q124R_T178R with N-terminal HA or FLAG tag; experiment: LCCA (SPR tag readout), L1:L2 DNA 1:3, normalized to 1:1; competing light chain m16
[41] = biological target: D3H44 light chain Q124E_T180E with N-terminal HA or FLAG tag; experiment: LCCA (SPR tag readout), L1:L2 DNA 1:3, normalized to 1:1; competing light chain m19
[42] = biological target: D3H44 light chain Q124E_Q160E_T180E with N-terminal HA or FLAG tag; experiment: LCCA (SPR tag readout), L1:L2 DNA 1:3, normalized to 1:1; competing light chain m17
[43] = biological target: D3H44 light chain T178R with N-terminal HA or FLAG tag; experiment: LCCA (SPR tag readout), L1:L2 DNA 1:3, normalized to 1:1; competing light chain m13
[44] = biological target: D3H44 light chain F116C_Q124R_T178R with N-terminal HA or FLAG tag; experiment: LCCA (SPR tag readout), L1:L2 DNA 1:3, normalized to 1:1; competing light chain m18

- H1L1:H1L2 normalized median ratio [1]: 15%
- H1L1:H1L2 normalized median ratio [2]: 78%
- H1L1:H1L2 normalized median scalar value ln(r1/f1) [2]: 1.28
- H1L1:H1L2 normalized median ratio [3]: 82%
- H1L1:H1L2 normalized median scalar value ln(r1/f1) [3]: 1.55
- H1L1:H1L2 normalized median ratio [4]: 13%
- H1L1:H1L2 normalized median ratio [5]: 24%
- H1L1:H1L2 normalized median ratio [6]: 18%
- H1L1:H1L2 normalized median ratio [7]: 31%
- H1L1:H1L2 normalized median ratio [8]: 89%
- H1L1:H1L2 normalized median scalar value ln(r1/f1) [8]: 2.05
- H1L1:H1L2 normalized median ratio [9]: 22%
- H1L1:H1L2 normalized median ratio [10]: 11%
- H1L1:H1L2 normalized median ratio [11]: 85%
- H1L1:H1L2 normalized median scalar value ln(r1/f1) [11]: 1.74
- H1L1:H1L2 normalized median ratio [12]: 84%
- H1L1:H1L2 normalized median scalar value ln(r1/f1) [12]: 1.63
- H1L1:H1L2 normalized median ratio [13]: 76%
- H1L1:H1L2 normalized median scalar value ln(r1/f1) [13]: 1.14
- H1L1:H1L2 normalized median ratio [14]: 69%
- H1L1:H1L2 normalized median scalar value ln(r1/f1) [14]: 0.79
- H1L1:H1L2 normalized median ratio [15]: 89%
- H1L1:H1L2 normalized median scalar value ln(r1/f1) [15]: 2.08
- H1L1:H1L2 normalized median ratio [16]: 87%
- H1L1:H1L2 normalized median scalar value ln(r1/f1) [16]: 1.9
- H1L1:H1L2 normalized median ratio [17]: 11%
- H1L1:H1L2 normalized median ratio [18]: 16%
Substance: D3H44 Fab heavy chain L143E_K145T_Q179D with C-terminal ABD2-His6 tag

- H1L1:H1L2 normalized median ratio [19]: 12%
- H1L1:H1L2 normalized median ratio [1]: 30%
- H1L1:H1L2 normalized median ratio [20]: 88%
- H1L1:H1L2 normalized median scalar value ln(r1/f1) [20]: 1.96
- H1L1:H1L2 normalized median ratio [21]: 88%
- H1L1:H1L2 normalized median scalar value ln(r1/f1) [21]: 2.02
- H1L1:H1L2 normalized median ratio [22]: 75%
- H1L1:H1L2 normalized median scalar value ln(r1/f1) [22]: 1.1
- H1L1:H1L2 normalized median ratio [23]: 11%
- H1L1:H1L2 normalized median ratio [24]: 25%
- H1L1:H1L2 normalized median ratio [25]: 14%
- H1L1:H1L2 normalized median ratio [26]: 8%
- H1L1:H1L2 normalized median ratio [5]: 15%
- H1L1:H1L2 normalized median ratio [27]: 8%
- H1L1:H1L2 normalized median ratio [28]: 15%
- H1L1:H1L2 normalized median ratio [29]: 8%
- H1L1:H1L2 normalized median ratio [30]: 17%
- H1L1:H1L2 normalized median ratio [31]: 12%
- H1L1:H1L2 normalized median ratio [7]: 27%
- H1L1:H1L2 normalized median ratio [32]: 83%
- H1L1:H1L2 normalized median scalar value ln(r1/f1) [32]: 1.59
- H1L1:H1L2 normalized median ratio [33]: 12%
- H1L1:H1L2 normalized median ratio [11]: 70%
- H1L1:H1L2 normalized median scalar value ln(r1/f1) [11]: 0.84
- H1L1:H1L2 normalized median ratio [12]: 84%
- H1L1:H1L2 normalized median scalar value ln(r1/f1) [12]: 1.69
- H1L1:H1L2 normalized median ratio [13]: 85%
- H1L1:H1L2 normalized median scalar value ln(r1/f1) [13]: 1.75
- H1L1:H1L2 normalized median ratio [14]: 73%
- H1L1:H1L2 normalized median scalar value ln(r1/f1) [14]: 1
- H1L1:H1L2 normalized median ratio [34]: 86%
- H1L1:H1L2 normalized median scalar value ln(r1/f1) [34]: 1.83
- H1L1:H1L2 normalized median ratio [35]: 92%
- H1L1:H1L2 normalized median scalar value ln(r1/f1) [35]: 2.45
- H1L1:H1L2 normalized median ratio [36]: 88%
- H1L1:H1L2 normalized median scalar value ln(r1/f1) [36]: 2
- H1L1:H1L2 normalized median ratio [37]: 89%
- H1L1:H1L2 normalized median scalar value ln(r1/f1) [37]: 2.14
- H1L1:H1L2 normalized median ratio [18]: 16%
- H1L1:H1L2 normalized median ratio [38]: 92%
- H1L1:H1L2 normalized median scalar value ln(r1/f1) [38]: 2.46
- H1L1:H1L2 normalized median ratio [39]: 85%
- H1L1:H1L2 normalized median scalar value ln(r1/f1) [39]: 1.77
- H1L1:H1L2 normalized median ratio [40]: 92%
- H1L1:H1L2 normalized median scalar value ln(r1/f1) [40]: 2.41
Substance: D3H44 Fab heavy chain L143E_K145T_Q179E with C-terminal ABD2-His6 tag

- H2L2:H2L1 normalized median ratio [19]: 92%
- H2L2:H2L1 normalized median ratio [1]: 96%
- H2L2:H2L1 normalized median ratio [21]: 10%
- H2L2:H2L1 normalized median ratio [41]: 96%
- H2L2:H2L1 normalized median ratio [42]: 94%
- H2L2:H2L1 normalized median ratio [26]: 92%
- H2L2:H2L1 normalized median ratio [5]: 96%
- H2L2:H2L1 normalized median ratio [29]: 91%
- H2L2:H2L1 normalized median ratio [8]: 13%
- H2L2:H2L1 normalized median ratio [33]: 90%
- H2L2:H2L1 normalized median ratio [10]: 87%
- H2L2:H2L1 normalized median ratio [11]: 4%
- H2L2:H2L1 normalized median ratio [43]: 4%
- H2L2:H2L1 normalized median ratio [12]: 4%
- H2L2:H2L1 normalized median ratio [13]: 4%
- H2L2:H2L1 normalized median ratio [35]: 9%
- H2L2:H2L1 normalized median ratio [36]: 8%
- H2L2:H2L1 normalized median ratio [44]: 6%
- H2L2:H2L1 normalized median ratio [18]: 96%
- H2L2:H2L1 normalized median ratio [38]: 8%
Substance: D3H44 Fab heavy chain Q179K with C-terminal ABD2-His6 tag
